Experimental data published in the supplement of paper PMC9732359.
± gives the uncertainty stated by the source.

experiment: protein stability index of a GFP-peptide fusion (yeast GPS) (PSI 1-4); higher = more stable; sorted into four equal gates, so the index is relative within each strain; conditions: doa10∆
In short: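 Plasmids isolated from each sorting gate were PCR-amplified and Illumina-sequenced, and barcodes assigned the reads to strains. The gates, four of equal size, were set by GFP/Cherry fluorescence ratio on mid-log cultures in leucine-free medium. These cultures were yeast carrying a pooled library of tiled 17-residue yeast protein peptides fused downstream of GFP on a plasmid that also expresses Cherry. The protein stability index is the sum of every gate's read frequency times its gate number.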

Sequence	protein stability index
NKITNQGVTCLHLAVGK [NAS6]	1.4 ± 0.2
NKKSEENEMIKPMNKGQ [SWP82]	3.09 ± 0.18
NKLGNDPSLNLKLLAKS [BRR2]	2.64 ± 0.062
NKLGNKRLTEDERIEKE [CDC53]	2.38 ± 0.15
NKLLRRKLMEMENILQR [YIL149C/MLP2]	3.41 ± 0.2
NKLTILGRDYPIEVDEE [IRR1]	2.28 ± 0.1
NKQIEILTDLVNYRHFK [ITC1]	2.93 ± 0.042
NKSRSSGHFSTDSRTGQ [CDC53]	3.03 ± 0.054
NKYANNDFANNLPKEGD [CSL4]	3.14 ± 0.067
NKYPELLGKDNEDDALI [AAR2]	3.33 ± 0.1
NLATWYHSAGGRDKHAL [SSN3]	3.49 ± 0.17
NLEESSKLDIYTQQQAL [RET1]	2.9 ± 0.087
NLEIPAYEFDGDKVIVG [RIP1]	2.71 ± 0.07
NLENHFKKSKIDHINEE [SCL1]	2.74 ± 0.072
NLETLVTTKDDLSGADI [RPT2]	3.15 ± 0.067
NLGSNVRNSFPLDEIPV [REC8]	2.95 ± 0.074
NLGSRTKNNTQASGITA [SSN3]	2.44 ± 0.065
NLINLSIGASIADLASL [YCS4]	2.45 ± 0.055
NLKLISVSLVDEFPSEL [SIR4]	2.57 ± 0.061
NLLESITKLLEINLSKI [YCS4]	2.73 ± 0.057
NLLLRELNVEKLNTFNL [SRP72]	2.71 ± 0.15
NLLSKRNQEKKMEKKKS [SNM1]	3.09 ± 0.16
NLNELESQLQMDRTSLR [SMC3]	2.57 ± 0.15
NLNRAFNGDQVIVELLP [DIS3]	3.17 ± 0.11
NLQTVHFGHCFNITDNG [GRR1]	1.22 ± 0.091
NLSEARLVIKEALVERR [RPB4]	3.33 ± 0.28

Sequence	protein stability index
NLSIDEVAVPDRVAKVL [RPO31]	3.09 ± 0.076
NLTAGIIVAGYDDKNKG [PRE3]	2 ± 0.071
NNAKLLTFMTCNSLHIP [ESC2]	1.71 ± 0.046
NNDADKGRSYAYFMVGA [RIP1]	3.24 ± 0.11
NNEKVVQYLRSVQDLGG [YML031W/NDC1]	3.1 ± 0.2
NNLFRIIAELSFLKVDP [YJL039C/NUP192]	3.08 ± 0.054
NNMNVNMNLNPQMFLNQ [GAL11]	2.14 ± 0.043
NNNHKDKKLLRRLLNLY [SWI1]	2.88 ± 0.054
NNNNTNTQPSASGFGFG [YGR119C/NUP57]	3.22 ± 0.081
NNNNTTTTTTTTNNNNT [SWI1]	3.07 ± 0.031
NNSNTVASSTNFTSPTA [SWI1]	2.82 ± 0.039
NNSSSGMNNASAGLFGS [YGL172W/NUP49]	3.18 ± 0.084
NNSTSNANTVFSERAAM [SWI1]	2.63 ± 0.06
NNVVINFKDMSHVNKYG [PRP8]	2.64 ± 0.1
NPEPNKKNIQKAKSNQT [IRR1]	2.25 ± 0.062
NPIHVSRHFASYANLPG [FAS1]	2.23 ± 0.059
NPLIELTPIQKKIMDET [ITC1]	2.67 ± 0.087
NPNTNTNSNNTPLQSQL [PGD1]	2.91 ± 0.071
NPRRLEIKDGRSLFLRN [YMR153W/NUP53]	3.27 ± 0.1
NPSEFTPNMVNSEISNL [SSN2]	2.66 ± 0.08
NPSVKQGEVGAVFIVPK [SWP82]	3.23 ± 0.26
NPSYPGMMSTTGTARLN [YJL039C/NUP192]	2.97 ± 0.097
NQASTSKRVYKILSPTM [CDC53]	2.58 ± 0.062
NQILMSVNFFVSLLKKN [RPL1A]	1.84 ± 0.052
NQPHQSQTPSFNTNSSF [YOR098C/NUP1]	2.64 ± 0.042
NQVGTDELILPLPSHAL [YDL116W/NUP84]	3.09 ± 0.057

Sequence	protein stability index
NRANVSKDELREKLAEV [RPS24A]	3.53 ± 0.089
NRGVKLEIVYGYALRDV [RPP1]	2.54 ± 0.084
NRRLFKKCIDFFEMLIS [RRI2]	2.2 ± 0.037
NRRWTQRRGPLVVYAED [RPL4A]	2.44 ± 0.16
NRTFTDPPFRIEEQGWG [TAF14]	3.11 ± 0.067
NSAIANEQEEKSEEVKA [RPC37]	2.61 ± 0.08
NSITSGGLKSCDLDFPL [YDL116W/NUP84]	2.78 ± 0.078
NSKNDSANVELFKRDCN [YCS4]	2.75 ± 0.071
NSLIEEINERSETQTKD [YCG1]	3.07 ± 0.12
NSSKPAFSFGAKSNEDK [YJL041W/NSP1]	3.19 ± 0.1
NSSNYAELFNNDIKLFV [PRP8]	2.44 ± 0.041
NSSVGNKTDAQAPTTGF [YJL041W/NSP1]	3 ± 0.072
NSTLKKVESQETLNDTI [YCS4]	2.12 ± 0.1
NSWFDVTWRTFTGDFLR [FAS1]	2.75 ± 0.11
NSYQPSPFFVLDEVDAA [SMC1]	2.6 ± 0.12
NTATNALRPSDIFGANA [YOR098C/NUP1]	3.08 ± 0.069
NTCTISTSKFESQYPIV [SWP82]	2.57 ± 0.089
NTEGSVVYEDSLELEKV [SNF2]	2.98 ± 0.063
NTFVTRLNNVFVIGEQG [RPS4A]	3.29 ± 0.096
NTKEEFAAAPNDTSSGT [SNF5]	2.97 ± 0.067
NTLEFIIEQLSIAAERY [YCG1]	2.29 ± 0.052
NTLLISGPFKVNGVPLR [RPL6A]	2.25 ± 0.074
NTLYTAIITDDLDTVLK [SRP72]	2.19 ± 0.039
NTNNINNSSSGMNNASA [YGL172W/NUP49]	3.33 ± 0.11
